B1: Gamma-crystallin C, residues 4 to 79; numbered along this chain, P07315 (parent)
chain: ITFYEDRAFQGRSYETTTDCPNLQPYFSRCNSIRVESGCWMLYERPNYQGQQYLLRRGEYPDYQQWMGLSDSIRSC
B2: WW domain-binding protein 4, residues 8 to 43; numbered along this chain, O75554 (parent)
chain: QPKKFCDYCKCWIADNRPSVEFHERGKNHKENVAKR

Variants of: B1
Assay: abundance fitness (aPCA) (normalised: wild type 0, dead -1); higher = more abundant; growth selection in yeast, the domain comes from the species named
Details: Homo sapiens

Abundance fitness, by site and new letter:
D71: K 0.094 | F -0.132 | I -0.106

Variants of: B2
Assay: as above
Details: Homo sapiens

Abundance fitness of substitutions, site by site:
C6: E -0.546 | K -0.216 | P -0.466 | A -0.471 | V -0.756 | N -0.919 | F -0.653 | L -0.862 | R -0.691 | M -0.654 | G -1.07 | W -1 | S -0.615 | T -0.521
C11: G -0.059 | P -0.475 | M 0.084 | Q 0.139 | S 0.101 | T 0.087 | D 0.144 | V 0.066 | K -0.066 | H -0.335 | A 0.052 | F -0.417 | W -0.589 | I 0.002 | L -0.045
Q1: L -0.654 | A -0.931 | G -0.548 | E -0.941 | C -1.36 | Y -0.422 | M -0.242 | S -0.651 | W -1.47 | R -0.979 | T -0.509 | K -0.879 | V -0.257 | I 0.404 | H -0.275
K3: D -0.025 | H -0.569 | G -0.051 | L -0.193 | F -0.881 | W -0.997 | M 0.074 | S -0.102 | C -1.59 | Q 0.082 | E 0.174 | R 0.013 | P -0.119 | A -0.194 | Y 0.045 | V -0.279 | T -0.275
D7: L -0.209 | M -0.241 | Y -0.286 | K -0.272 | W -0.649 | S -0.131 | Q -0.113 | P -0.529 | E 0.007 | V -0.6 | G -0.173 | T 0.154
K10: P -0.482 | Q -0.146 | D 0.061 | F -0.409 | M -0.34 | N -0.149 | A -0.126 | V -0.551 | Y 0.002 | W -0.748 | S -0.151 | C -0.325 | E -0.134 | R -0.088
P2: C -0.839 | D 0.365 | M 0.615 | A 0.007 | W -0.692 | I 0.015 | G 0.136 | S 0.115 | V 0.06 | T 0.109 | R 0.047 | K 0.294 | L 0.045 | Y -0.176 | Q 0.179
Y8: V -0.249 | T -0.07 | D 0.129 | P 0.343 | K -0.309 | G -0.224 | R -0.12 | L -0.26 | E 0.048 | W -0.118 | C -0.269 | M 0.054 | S -0.448
K4: R -0.374 | V -0.507 | N -0.226 | Q -0.245 | M 0.13 | L -0.366 | S -0.212 | W -1.03 | E -0.355 | D -0.573 | T -0.022 | C -0.453 | F -0.177 | A -0.291 | G -0.497
F5: A -0.261 | N -0.174 | G -0.786 | E -0.356 | W -1.06 | S -0.468 | P -0.551 | Q -0.328 | I -0.379 | R -0.465 | D -0.533 | Y -0.087 | V -0.565 | M -0.085 | K -0.502
W12: H 0.339 | C -0.437 | G -0.331 | D -0.219 | E -0.238 | A -0.209 | F -0.165
C9: D -0.541 | V -1.28 | G -0.525 | K -0.983 | E -0.603 | S -0.116 | W -1.2 | L -1.13 | T -0.635 | A -0.787 | M -1.23 | Q -0.701

— the Human Domainome abundance scans (Beltran et al. 2025)
